Assay results reported in patent publication US20210371867A1 (SYSMEX, published 2021).
Residue numbers refer to the chain shown, from its start. Values belong to the binder of their own block, whether it stands above or below them.

Legend:
[1] = target: T1, human CD80/B7-1 protein (His tag) (human, UniProt P33681 35-242); experiment: sandwich chemiluminescence ELISA; capture rabbit anti-CD80 IgG on plate, antigen 0.005-20 ng/mL, binder as detection antibody at 200 ng/mL
T1 construct: Recombinant His-tagged protein used as the antigen solution; also called antigen
T1 sequence (looked up): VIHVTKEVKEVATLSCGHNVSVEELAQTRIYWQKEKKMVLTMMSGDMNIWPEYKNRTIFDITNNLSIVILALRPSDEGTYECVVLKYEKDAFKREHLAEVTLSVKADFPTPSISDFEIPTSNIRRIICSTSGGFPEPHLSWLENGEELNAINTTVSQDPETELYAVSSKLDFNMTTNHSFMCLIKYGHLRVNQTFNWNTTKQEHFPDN
Description: Rabbit anti-CD80 antibody (IgG) was diluted with PBS to 1 μg/mL. The resulting antibody solution was added to a 96-well black plate at 100 μL/well and allowed to stand overnight at 4° C. to immobilize the antibody in the wells. After removing the antibody solution from the plate, Buffer I′ (100 mM HEPES, 1% BSA, 0.05% ProClin (trademark), 1 mM MgCl₂, 0.1 mM ZnCl₂, pH 8.0) was added at 300 μL/well and allowed to stand overnight at 4° C. for blocking. After removing the solution from the plate, a human CD80/B7-1 protein (His tag) solution (0.005, 0.020, 0.078, 0.313, 1.25, 5.0 or 20 ng/mL) was added as an antigen solution at 100 μL/well. The plate was shaken at room temperature at 500 rpm for 1 hour to perform an antigen-antibody reaction. The plate was washed three times with a HISCL washing solution (Sysmex Corporation), and then each ALP fusion antibody (200 ng/mL) of Example 1 diluted with Buffer I′ was added at 100 μL/well. The plate was shaken at room temperature at 500 rpm for 1 hour to perform an antigen-antibody reaction. After washing the plate with a HISCL washing solution three times, a HISCL R5 reagent (Sysmex Corporation) as a solution of a chemiluminescent substrate of ALP was added at 100 μL/well, and luminescence intensity was immediately measured with FLUOstar OPTIMA (BMG LABTECH).

[2] = target: human IgG antibody (human); experiment: sandwich chemiluminescence immunoassay (HISCL-800); detection reagent stored at 40° C. for 1 week
[3] = target: human IgG antibody (human); experiment: sandwich chemiluminescence immunoassay on magnetic particles (HISCL-800); capture biotin-labeled mouse anti-human IgG semi-IgG; binder as detection antibody, 0.051 U/mL
[4] = target: human IgG antibody (human); experiment: sandwich chemiluminescence immunoassay (HISCL-800); PC counts over NC counts, R3 reagent stored at 4° C.

- binding result [1]: binds
B2: ALP fusion antibody of Example 1 (EK3 linker): Fab of rabbit anti-CD80 antibody, Fd-EK3-BIAPII (Fab)
heavy: QSVEESGGRLVTPGTPLTLTCTASGFSLSNNAVSWVRQAPGEGLEWIGTISSNDNTYYATWAKGRFTISKTSTTVDLKITSPTTEDTATYFCAIYYYGYGYVFNLWGPGTLVTVSSGQPKAPSVFPLAPCCGDTPSSTVTLGCLVKGYLPEPVTVTWNSGTLTNGVRTFPSVRQSSGLYSLSSVVSVTSSSQPVTCNVAHPATNTKVDKTVAPSTCSKPTEAAAKEAAAKEAAAKLIPAEEENPAFWNRQAAQALDVAKKLQPIQTAAKNVILFLGDGMGVPTVTATRILKGQMNGKLGPETPLAMDQFPYVALSKTYNVDRQVPDSAGTATAYLCGVKGNYRTIGVSAAARYNQCNTTRGNEVTSVINRAKKAGKAVGVVTTTRVQHASPAGAYAHTVNRNWYSDADLPADAQKNGCQDIAAQLVYNMDIDVILGGGRMYMFPEGTPDPEYPDDASVNGVRKDKQNLVQEWQAKHQGAQYVWNRTALLQAADDSSVTHLMGLFEPADMKYNVQQDHTKDPTLAEMTEAALQVLSRNPRGFYLFVEGGRIDHGHHDGKAYMALTEAIMFDNAIAKANELTSELDTLILVTADHSHVFSFGGYTLRGTSIFGLAPGKALDSKSYTSILYGNGPGYALGGGSRPDVNGSTSEEPSYRQQAAVPLASETHGGEDVAVFARGPQAHLVHGVQEETFVAHIMAFAGCVEPYTDCNLPAPA
light: ELVMTQTPASVSEPVGGTVTINCQASEDIYSSLAWYQQKPGQRPKLLMYYASTLASGVPSRFKGSGSGTEFTLTISDLECADAATYYCQSYYLSSSSRYGNAFGGGTEVVVKGDPVAPTVLIFPPAADQVATGTVTIVCVANKYFPDVTVTWEVDGTTQTTGIENSKTPQNSADCTYNLSSTLTLTSTQYNSHKEYTCKVTQGTTSVVQSFIG
notes: Fab-enzyme fusion, dimer through the ALP subunits

- binding result [1]: binds
B4: ALP fusion antibody of Example 1 (GS3 linker): Fab of rabbit anti-CD80 antibody, Fd-GS3-BIAPII (Fab)
heavy: QSVEESGGRLVTPGTPLTLTCTASGFSLSNNAVSWVRQAPGEGLEWIGTISSNDNTYYATWAKGRFTISKTSTTVDLKITSPTTEDTATYFCAIYYYGYGYVFNLWGPGTLVTVSSGQPKAPSVFPLAPCCGDTPSSTVTLGCLVKGYLPEPVTVTWNSGTLTNGVRTFPSVRQSSGLYSLSSVVSVTSSSQPVTCNVAHPATNTKVDKTVAPSTCSKPTGGGGSGGGGSGGGGSLIPAEEENPAFWNRQAAQALDVAKKLQPIQTAAKNVILFLGDGMGVPTVTATRILKGQMNGKLGPETPLAMDQFPYVALSKTYNVDRQVPDSAGTATAYLCGVKGNYRTIGVSAAARYNQCNTTRGNEVTSVINRAKKAGKAVGVVTTTRVQHASPAGAYAHTVNRNWYSDADLPADAQKNGCQDIAAQLVYNMDIDVILGGGRMYMFPEGTPDPEYPDDASVNGVRKDKQNLVQEWQAKHQGAQYVWNRTALLQAADDSSVTHLMGLFEPADMKYNVQQDHTKDPTLAEMTEAALQVLSRNPRGFYLFVEGGRIDHGHHDGKAYMALTEAIMFDNAIAKANELTSELDTLILVTADHSHVFSFGGYTLRGTSIFGLAPGKALDSKSYTSILYGNGPGYALGGGSRPDVNGSTSEEPSYRQQAAVPLASETHGGEDVAVFARGPQAHLVHGVQEETFVAHIMAFAGCVEPYTDCNLPAPA
light: B2 light
notes: as for B2

- binding result [1]: binds
B5: ALP fusion antibody of Example 1 (EK1 linker): Fab of rabbit anti-CD80 antibody, Fd-EK1-BIAPII (Fab)
heavy: QSVEESGGRLVTPGTPLTLTCTASGFSLSNNAVSWVRQAPGEGLEWIGTISSNDNTYYATWAKGRFTISKTSTTVDLKITSPTTEDTATYFCAIYYYGYGYVFNLWGPGTLVTVSSGQPKAPSVFPLAPCCGDTPSSTVTLGCLVKGYLPEPVTVTWNSGTLTNGVRTFPSVRQSSGLYSLSSVVSVTSSSQPVTCNVAHPATNTKVDKTVAPSTCSKPTEAAAKLIPAEEENPAFWNRQAAQALDVAKKLQPIQTAAKNVILFLGDGMGVPTVTATRILKGQMNGKLGPETPLAMDQFPYVALSKTYNVDRQVPDSAGTATAYLCGVKGNYRTIGVSAAARYNQCNTTRGNEVTSVINRAKKAGKAVGVVTTTRVQHASPAGAYAHTVNRNWYSDADLPADAQKNGCQDIAAQLVYNMDIDVILGGGRMYMFPEGTPDPEYPDDASVNGVRKDKQNLVQEWQAKHQGAQYVWNRTALLQAADDSSVTHLMGLFEPADMKYNVQQDHTKDPTLAEMTEAALQVLSRNPRGFYLFVEGGRIDHGHHDGKAYMALTEAIMFDNAIAKANELTSELDTLILVTADHSHVFSFGGYTLRGTSIFGLAPGKALDSKSYTSILYGNGPGYALGGGSRPDVNGSTSEEPSYRQQAAVPLASETHGGEDVAVFARGPQAHLVHGVQEETFVAHIMAFAGCVEPYTDCNLPAPA
light: B2 light
notes: as for B2

- binding result [1]: binds
B6: ALP fusion antibody of Example 1 (EK2 linker): Fab of rabbit anti-CD80 antibody, Fd-EK2-BIAPII (Fab)
heavy: QSVEESGGRLVTPGTPLTLTCTASGFSLSNNAVSWVRQAPGEGLEWIGTISSNDNTYYATWAKGRFTISKTSTTVDLKITSPTTEDTATYFCAIYYYGYGYVFNLWGPGTLVTVSSGQPKAPSVFPLAPCCGDTPSSTVTLGCLVKGYLPEPVTVTWNSGTLTNGVRTFPSVRQSSGLYSLSSVVSVTSSSQPVTCNVAHPATNTKVDKTVAPSTCSKPTEAAAKEAAAKLIPAEEENPAFWNRQAAQALDVAKKLQPIQTAAKNVILFLGDGMGVPTVTATRILKGQMNGKLGPETPLAMDQFPYVALSKTYNVDRQVPDSAGTATAYLCGVKGNYRTIGVSAAARYNQCNTTRGNEVTSVINRAKKAGKAVGVVTTTRVQHASPAGAYAHTVNRNWYSDADLPADAQKNGCQDIAAQLVYNMDIDVILGGGRMYMFPEGTPDPEYPDDASVNGVRKDKQNLVQEWQAKHQGAQYVWNRTALLQAADDSSVTHLMGLFEPADMKYNVQQDHTKDPTLAEMTEAALQVLSRNPRGFYLFVEGGRIDHGHHDGKAYMALTEAIMFDNAIAKANELTSELDTLILVTADHSHVFSFGGYTLRGTSIFGLAPGKALDSKSYTSILYGNGPGYALGGGSRPDVNGSTSEEPSYRQQAAVPLASETHGGEDVAVFARGPQAHLVHGVQEETFVAHIMAFAGCVEPYTDCNLPAPA
light: B2 light
notes: as for B2

The next lines start with the binder.

B1: ALP fusion antibody of Example 1 (GS1 linker): Fab of rabbit anti-CD80 antibody, Fd-GS1-BIAPII (Fab)
heavy: B5 heavy with E221G, A222G, A223G, A224G, K225S
light: B2 light
notes: Fab-enzyme fusion; two ALP fusion Fab molecules form a complex by dimer formation of the ALP subunits; also called Fab-GS1-BIAPII; ALP fusion antibody (GS1 linker)
- binding result [1]: binds

B3: ALP fusion antibody of Example 1 (GS2 linker): Fab of rabbit anti-CD80 antibody, Fd-GS2-BIAPII (Fab)
heavy: B6 heavy with E221G, A222G, A223G, A224G, K225S, E226G, A227G, A228G, A229G, K230S
light: B2 light
notes: as for B2
- binding result [1]: binds

B7: ALP fusion antibody of Example 2 (GS1): Fab of mouse anti-human IgG antibody, Fd-GS1-BIAPII (Fab, part only; not given: Fd and light chain of anti-IgG Fab, part only)
heavy, part: GGGGSLIPAEEENPAFWNRQAAQALDVAKKLQPIQTAAKNVILFLGDGMGVPTVTATRILKGQMNGKLGPETPLAMDQFPYVALSKTYNVDRQVPDSAGTATAYLCGVKGNYRTIGVSAAARYNQCNTTRGNEVTSVINRAKKAGKAVGVVTTTRVQHASPAGAYAHTVNRNWYSDADLPADAQKNGCQDIAAQLVYNMDIDVILGGGRMYMFPEGTPDPEYPDDASVNGVRKDKQNLVQEWQAKHQGAQYVWNRTALLQAADDSSVTHLMGLFEPADMKYNVQQDHTKDPTLAEMTEAALQVLSRNPRGFYLFVEGGRIDHGHHDGKAYMALTEAIMFDNAIAKANELTSELDTLILVTADHSHVFSFGGYTLRGTSIFGLAPGKALDSKSYTSILYGNGPGYALGGGSRPDVNGSTSEEPSYRQQAAVPLASETHGGEDVAVFARGPQAHLVHGVQEETFVAHIMAFAGCVEPYTDCNLPAPA
- Counts (PC, R3 reagent stored at 40° C., 1 week) [2]: 320000 counts
- Counts (PC, R3 reagent stored at 4° C.) [3]: 359000 counts
- S/N [4]: 737
